Results as given in article doi:10.1101/2020.10.30.362368 (bioRxiv, 2020).

T1: SmcR WT (Vibrio vulnificus, UniProt Q9L8G8 1-205)
T1 sequence: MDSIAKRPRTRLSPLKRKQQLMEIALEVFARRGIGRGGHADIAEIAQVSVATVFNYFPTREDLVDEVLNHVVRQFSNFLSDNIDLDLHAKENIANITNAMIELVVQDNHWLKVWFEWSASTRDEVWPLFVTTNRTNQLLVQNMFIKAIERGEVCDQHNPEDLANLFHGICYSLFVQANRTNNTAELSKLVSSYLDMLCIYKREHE

T2: SmcR N55I (Vibrio vulnificus, UniProt Q9L8G8 1-205, N55I)
T2 sequence: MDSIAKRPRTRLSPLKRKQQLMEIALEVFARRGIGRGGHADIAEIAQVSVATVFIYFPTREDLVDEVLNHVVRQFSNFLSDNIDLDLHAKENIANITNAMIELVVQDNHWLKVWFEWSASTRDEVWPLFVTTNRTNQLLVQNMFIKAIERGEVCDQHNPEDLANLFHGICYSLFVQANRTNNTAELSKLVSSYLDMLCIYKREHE

B1: PluxC site E (site D mutated) (dsDNA)
DNA 1: TTTGTTAAATGTTGCGCGTAATTATAAATAAATCAAACTATAATTAGATT
DNA 2: AATCTAATTATAGTTTGATTTATTTATAATTACGCGCAACATTTAACAAA
B2: PluxC site D (site E mutated) (dsDNA)
DNA 1: TTTGTTAAATGTTATGACTAATTATAAATAAATCAAACGCGCGTTAGATT
DNA 2: AATCTAACGCGCGTTTGATTTATTTATAATTAGTCATAACATTTAACAAA
B3: SmcR wild-type, untagged (Vibrio vulnificus quorum-sensing transcription factor) (natural protein)
chain: MDSIAKRPRTRLSPLKRKQQLMEIALEVFARRGIGRGGHADIAEIAQVSVATVFNYFPTREDLVDEVLNHVVRQFSNFLSDNIDLDLHAKENIANITNAMIELVVQDNHWLKVWFEWSASTRDEVWPLFVTTNRTNQLLVQNMFIKAIERGEVCDQHNPEDLANLFHGICYSLFVQANRTNNTAELSKLVSSYLDMLCIYKREHE
B4: SmcR N55I, untagged (natural protein)
chain: MDSIAKRPRTRLSPLKRKQQLMEIALEVFARRGIGRGGHADIAEIAQVSVATVFIYFPTREDLVDEVLNHVVRQFSNFLSDNIDLDLHAKENIANITNAMIELVVQDNHWLKVWFEWSASTRDEVWPLFVTTNRTNQLLVQNMFIKAIERGEVCDQHNPEDLANLFHGICYSLFVQANRTNNTAELSKLVSSYLDMLCIYKREHE
B5: PluxC site B (JDN55/JDN54) (dsDNA)
DNA 1: TTACTTATTTATAGTGTTACAAATAACATTA
DNA 2: TAATGTTATTTGTAACACTATAAATAAGTAA

How the values were obtained:
SmcR WT = molecular target: T1, SmcR WT; assay: EMSA
[1] = molecular target: V. harveyi His-RNAP alpha (RNA polymerase alpha subunit) (Vibrio harveyi, UniProt A0A0B4IMU9 1-330); assay: BLI
SmcR N55I = molecular target: T2, SmcR N55I; assay: EMSA

Binder	binding result (SmcR WT)	Kd [1]	binding result (SmcR N55I)
B1	binds		
B2	binds		
B3		142 nM	
B4		160 nM	
B5	binds		binds
